According to the supplement of paper PMC10567573:

B1: TRAF3IP2 (parent)
chain: YGHDYPRAAYQQVIQPALPGQPLP

Variants of: B1
Experiment: protein stability index of a GFP-peptide fusion (GPS, HEK-293T) (PSI 1-6); higher = more stable
Conditions: c terminus: a fixed tail appended
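Note: lentivirally expressed fusions sorted by FACS into six bins by GFP to DsRed ratio, PSI derived from sequencing read proportions per bin multiplied by bin number.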

Question: Which protein stability index does the source give for YGHDYPRAAYQNVIQPALPGQPLP [Q12N] here?
Answer: 1.65

Question: With YGHDYPRAAYQGVIQPALPGQPLP [Q12G] as the variant, how does the protein stability index read?
Answer: 2.79

Question: With YGHDYPRAAYQAVIQPALPGQPLP [Q12A] as the variant, how does the protein stability index read?
Answer: 1.96

Question: With YGHDYPRAAYQDVIQPALPGQPLP [Q12D] as the variant, how does the protein stability index read?
Answer: 1.58

Question: For YGHDYPRAAYQPVIQPALPGQPLP [Q12P], which protein stability index is on record?
Answer: 3.46

Question: With YGIDYPRAAYQQVIQPALPGQPLP [H3I] as the variant, how does the protein stability index read?
Answer: 1.83

Question: Which protein stability index does the source give for YGHDYPRAAYQQVIQPALPSQPLP [G20S] here?
Answer: 1.6

Question: Which protein stability index does the source give for YGHDYPRAAYQQVIQPALPVQPLP [G20V] here?
Answer: 1.69

Question: For YGHDYPRAAYQQVIQPALPNQPLP [G20N], which protein stability index is on record?
Answer: 2.68

Question: For YGHDYTRAAYQQVIQPALPGQPLP [P6T], which protein stability index is on record?
Answer: 2.73

Question: Which protein stability index does the source give for YGHDYWRAAYQQVIQPALPGQPLP [P6W] here?
Answer: 1.48

Question: Which protein stability index does the source give for YGHDYIRAAYQQVIQPALPGQPLP [P6I] here?
Answer: 1.69

Question: For YGHDYARAAYQQVIQPALPGQPLP [P6A], which protein stability index is on record?
Answer: 2.44

Question: For YGHDYHRAAYQQVIQPALPGQPLP [P6H], which protein stability index is on record?
Answer: 1.93

Question: For YGHDYQRAAYQQVIQPALPGQPLP [P6Q], which protein stability index is on record?
Answer: 2.27

Question: Which protein stability index does the source give for YGHDYPRAAYQQVIQPALPGQELP [P22E] here?
Answer: 1.71

Question: For YGHDYPRAAYQQVIQPALPGQQLP [P22Q], which protein stability index is on record?
Answer: 2.24

Question: With YGHDYPRAAYQQVIQPALPGQYLP [P22Y] as the variant, how does the protein stability index read?
Answer: 1.75

Question: For YGHDYPRAAYQQVIQPALPGQLLP [P22L], which protein stability index is on record?
Answer: 1.39

Question: Which protein stability index does the source give for YGHDYPRAAYQQVIQPALPGQNLP [P22N] here?
Answer: 2.11

Question: Which protein stability index does the source give for YGHDYPRAAYQQVIQPALPGQRLP [P22R] here?
Answer: 1.79

Question: Which protein stability index does the source give for LGHDYPRAAYQQVIQPALPGQPLP [Y1L] here?
Answer: 3.95

Question: Which protein stability index does the source give for PGHDYPRAAYQQVIQPALPGQPLP [Y1P] here?
Answer: 4.1

Question: Which protein stability index does the source give for EGHDYPRAAYQQVIQPALPGQPLP [Y1E] here?
Answer: 4.63

Question: With QGHDYPRAAYQQVIQPALPGQPLP [Y1Q] as the variant, how does the protein stability index read?
Answer: 3.73

Question: With YGHDYPRAAYQQVIQPAWPGQPLP [L18W] as the variant, how does the protein stability index read?
Answer: 2.01

Question: Which protein stability index does the source give for YGHDYPRAAYQQVIQPASPGQPLP [L18S] here?
Answer: 1.6

Question: With YGHDYPRAAYQQVIQPAHPGQPLP [L18H] as the variant, how does the protein stability index read?
Answer: 1.9

Question: Which protein stability index does the source give for YGHDYPRAAYQQVIQPAAPGQPLP [L18A] here?
Answer: 1.75

Question: Which protein stability index does the source give for YGHDYPRAAYQQVFQPALPGQPLP [I14F] here?
Answer: 2.01

Question: With YGHDYPRAAYQQVDQPALPGQPLP [I14D] as the variant, how does the protein stability index read?
Answer: 1.22

Question: For YGHDYPRAAYQQVVQPALPGQPLP [I14V], which protein stability index is on record?
Answer: 1.67

Question: With YGHDYPRGAYQQVIQPALPGQPLP [A8G] as the variant, how does the protein stability index read?
Answer: 2.18

Question: Which protein stability index does the source give for YGHDYPRMAYQQVIQPALPGQPLP [A8M] here?
Answer: 1.76

Question: With YGHDYPRTAYQQVIQPALPGQPLP [A8T] as the variant, how does the protein stability index read?
Answer: 2.8

Question: With YGHDYPRWAYQQVIQPALPGQPLP [A8W] as the variant, how does the protein stability index read?
Answer: 2.64

Question: With YWHDYPRAAYQQVIQPALPGQPLP [G2W] as the variant, how does the protein stability index read?
Answer: 2.03

Question: For YKHDYPRAAYQQVIQPALPGQPLP [G2K], which protein stability index is on record?
Answer: 3.69

Question: For YGHDYPRAAYQQVIQPCLPGQPLP [A17C], which protein stability index is on record?
Answer: 2.32

Question: Which protein stability index does the source give for YGHDYPRAAYQQVIQPWLPGQPLP [A17W] here?
Answer: 1.92

Question: Which protein stability index does the source give for YGHDYPRAAYQQVIQPLLPGQPLP [A17L] here?
Answer: 3.12

Question: Which protein stability index does the source give for YGHDYPRAAYQQVIQPGLPGQPLP [A17G] here?
Answer: 1.46

Question: For YGHDYPRAAYQQVIQPELPGQPLP [A17E], which protein stability index is on record?
Answer: 2

Question: With YGHDYPRAAYQQVIQPSLPGQPLP [A17S] as the variant, how does the protein stability index read?
Answer: 2.43

Question: Which protein stability index does the source give for YGHDYPRAAYEQVIQPALPGQPLP [Q11E] here?
Answer: 2.09

Question: With YGHDYPRAAYHQVIQPALPGQPLP [Q11H] as the variant, how does the protein stability index read?
Answer: 2.48

Question: Which protein stability index does the source give for YGHDYPRAAYCQVIQPALPGQPLP [Q11C] here?
Answer: 3.05

Question: With YGHDYPRAAYAQVIQPALPGQPLP [Q11A] as the variant, how does the protein stability index read?
Answer: 2.75

Question: With YGHDYPRAAYDQVIQPALPGQPLP [Q11D] as the variant, how does the protein stability index read?
Answer: 2.05

Question: Which protein stability index does the source give for YGHDYPRAAYNQVIQPALPGQPLP [Q11N] here?
Answer: 1.96

Question: With YGHDYPRAAYQQVISPALPGQPLP [Q15S] as the variant, how does the protein stability index read?
Answer: 2.01

Question: For YGHDYPRAAYQQVIGPALPGQPLP [Q15G], which protein stability index is on record?
Answer: 2.42

Question: For YGHDYPRAAYQQVIWPALPGQPLP [Q15W], which protein stability index is on record?
Answer: 3.01

Question: For YGHDYPRAAYQQVIYPALPGQPLP [Q15Y], which protein stability index is on record?
Answer: 2.53

Question: Which protein stability index does the source give for YGHDYPRAAQQQVIQPALPGQPLP [Y10Q] here?
Answer: 2.07

Question: Which protein stability index does the source give for YGHDYPRAAHQQVIQPALPGQPLP [Y10H] here?
Answer: 2.52

Question: Which protein stability index does the source give for YGHDYPRAALQQVIQPALPGQPLP [Y10L] here?
Answer: 2

Question: For YGHDYPRAAMQQVIQPALPGQPLP [Y10M], which protein stability index is on record?
Answer: 1.65

Question: With YGHDYPRAAGQQVIQPALPGQPLP [Y10G] as the variant, how does the protein stability index read?
Answer: 1.91

Question: Which protein stability index does the source give for YGHDYPRAAYQQVIQPALEGQPLP [P19E] here?
Answer: 2.42

Question: With YGHDYPRAAYQQVIQPALRGQPLP [P19R] as the variant, how does the protein stability index read?
Answer: 1.76

Question: For YGHDYPRAAYQQVIQPALHGQPLP [P19H], which protein stability index is on record?
Answer: 1.65

Question: Which protein stability index does the source give for YGHYYPRAAYQQVIQPALPGQPLP [D4Y] here?
Answer: 2.9

Question: For YGHVYPRAAYQQVIQPALPGQPLP [D4V], which protein stability index is on record?
Answer: 2.36

Question: With YGHPYPRAAYQQVIQPALPGQPLP [D4P] as the variant, how does the protein stability index read?
Answer: 3.33

Question: For YGHRYPRAAYQQVIQPALPGQPLP [D4R], which protein stability index is on record?
Answer: 2.21

Question: Which protein stability index does the source give for YGHDYPRAAYQQVIQPALPGWPLP [Q21W] here?
Answer: 1.84

Question: With YGHDYPRAAYQQVIQPALPGAPLP [Q21A] as the variant, how does the protein stability index read?
Answer: 2.12

Question: Which protein stability index does the source give for YGHDYPRAAYQQVIQPALPGGPLP [Q21G] here?
Answer: 1.58

Question: For YGHDYPRAAYQQVIQPALPGEPLP [Q21E], which protein stability index is on record?
Answer: 2.2

Question: Which protein stability index does the source give for YGHDYPRAAYQQVIQPALPGPPLP [Q21P] here?
Answer: 2.95

Question: Which protein stability index does the source give for YGHDYPRAAYQQVIQPALPGRPLP [Q21R] here?
Answer: 2.24

Question: With YGHDYPRAAYQQVIQPALPGSPLP [Q21S] as the variant, how does the protein stability index read?
Answer: 1.99

Question: For YGHDYPRAAYQQVIQPALPGVPLP [Q21V], which protein stability index is on record?
Answer: 2.44

Question: With YGHDYPRAHYQQVIQPALPGQPLP [A9H] as the variant, how does the protein stability index read?
Answer: 1.92

Question: For YGHDYPRAFYQQVIQPALPGQPLP [A9F], which protein stability index is on record?
Answer: 2.15

Question: With YGHDYPRAVYQQVIQPALPGQPLP [A9V] as the variant, how does the protein stability index read?
Answer: 2.04

Question: With YGHDYPRAWYQQVIQPALPGQPLP [A9W] as the variant, how does the protein stability index read?
Answer: 1.15

Question: For YGHDYPRADYQQVIQPALPGQPLP [A9D], which protein stability index is on record?
Answer: 2.74

Question: For YGHDYPRAAYQQVIQVALPGQPLP [P16V], which protein stability index is on record?
Answer: 3.03

Question: Which protein stability index does the source give for YGHDYPRAAYQQVIQNALPGQPLP [P16N] here?
Answer: 1.95

Question: Which protein stability index does the source give for YGHDYPRAAYQQVIQAALPGQPLP [P16A] here?
Answer: 1.94

Question: For YGHDYPRAAYQQVIQPALPGQPLA [P24A], which protein stability index is on record?
Answer: 2.67

Question: For YGHDYPRAAYQQVIQPALPGQPLG [P24G], which protein stability index is on record?
Answer: 2.12

Question: Which protein stability index does the source give for YGHDYPAAAYQQVIQPALPGQPLP [R7A] here?
Answer: 2.46

Question: Which protein stability index does the source give for YGHDYPHAAYQQVIQPALPGQPLP [R7H] here?
Answer: 2.36

Question: For YGHDYPRAAYQQCIQPALPGQPLP [V13C], which protein stability index is on record?
Answer: 2.04

Question: With YGHDYPRAAYQQEIQPALPGQPLP [V13E] as the variant, how does the protein stability index read?
Answer: 1.74

Question: Which protein stability index does the source give for YGHDYPRAAYQQLIQPALPGQPLP [V13L] here?
Answer: 2.26

Question: For YGHDYPRAAYQQAIQPALPGQPLP [V13A], which protein stability index is on record?
Answer: 2.17

Question: With YGHDYPRAAYQQVIQPALPGQPKP [L23K] as the variant, how does the protein stability index read?
Answer: 2.2

Question: For YGHDYPRAAYQQVIQPALPGQPCP [L23C], which protein stability index is on record?
Answer: 2.21

Question: Which protein stability index does the source give for YGHDYPRAAYQQVIQPALPGQPIP [L23I] here?
Answer: 2.24

Question: Which protein stability index does the source give for YGHDYPRAAYQQVIQPALPGQPMP [L23M] here?
Answer: 2.59
